Source: article PMC11388340
pKd, pKi: −log10 of the molar value. Blank lines part the entries; values can stand above or below the substance they belong to.

Legend:
H3.3/H4 (Homo sapiens) = H3.3/H4 (Homo sapiens) (UniProt P84243); settings: cited from earlier work
[1] = target: ASF1a-C labelled with fluorescein-5-maleimide (human) (UniProt Q9Y294); experiment: fluorescence polarisation; direct binding: protein titrated into 10 nM fluorescently labelled ASF1a-C probe; 20 mM HEPES pH 7.5, 150 mM NaCl, 0.5 mM TCEP, 0.001% Tween-20, 1 mg/ml BSA; one-site total binding model
Sequence of ASF1a-C labelled with fluorescein-5-maleimide (human) (Q9Y294 1-156): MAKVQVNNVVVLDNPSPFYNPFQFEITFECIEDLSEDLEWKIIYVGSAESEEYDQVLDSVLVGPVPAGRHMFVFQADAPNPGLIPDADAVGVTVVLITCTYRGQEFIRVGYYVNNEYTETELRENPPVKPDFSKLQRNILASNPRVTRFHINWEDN

H3/H4 (Homo sapiens) = H3/H4 (Homo sapiens) (UniProt P84243); settings: cited from earlier work
[2] = target: H3.3/H4 (Homo sapiens (H3.3); Xenopus laevis (H4)) (UniProt P84243+P62799); experiment: competition; settings: 20 mM HEPES pH 7.5, 150 mM NaCl, 0.5 mM TCEP, 0.001% Tween-20, 1 mg/ml BSA; 10 nM probe; temperature not stated
[3] = target: ASF1a-C labelled with Alexa Fluor 488 (human) (UniProt Q9Y294); experiment: fluorescence polarisation; direct binding: protein titrated into 10 nM fluorescently labelled ASF1a-C probe; 20 mM HEPES pH 7.5, 150 mM NaCl, 0.5 mM TCEP, 0.001% Tween-20, 1 mg/ml BSA; one-site total binding model
Sequence of ASF1a-C labelled with Alexa Fluor 488 (human) (Q9Y294 1-156): as above

[4] = target: HIRA-WB/UBN1-NM complex (human) (UniProt P54198); experiment: AUC; sedimentation velocity of the HIRA-WB/UBN1-NM/H3.3/H4 SEC peak at three loading concentrations, 4 °C, 20 mM HEPES pH 6.95, 500 mM NaCl, 0.5 mM TCEP; global fit in Sedphat to monomer-dimer self-association: 2:2:2:2 assembly to 1:1:1:1 assemblies
[5] = target: H3.3/H4 heterodimer (human | X. laevis) (UniProt P84243); experiment: AUC; sedimentation equilibrium of H3.3/H4 alone, 4 °C, three loading concentrations, 15,000, 25,000 and 30,000 rpm, 20 mM HEPES pH 7.5, 100 mM NaCl, 100 mM KCl, 2 mM MgCl2, 1 mM EDTA, 0.05% Brij-35; monomer-dimer model: (H3.3/H4)2 tetramer to H3.3/H4 heterodimers
[6] = target: HIRA-WB/UBN1-NM/H3.3/H4 complex (human | X. laevis) (UniProt P54198); experiment: AUC; sedimentation velocity of the HIRA-WB/UBN1-NM/H3.3/H4 SEC peak at three loading concentrations, 4 °C, 20 mM HEPES pH 6.95, 500 mM NaCl, 0.5 mM TCEP; global fit in Sedphat to monomer-dimer self-association: 2:2:2:2 assembly to 1:1:1:1 assemblies

Sequence of ASF1a (Q9Y294 whole entry): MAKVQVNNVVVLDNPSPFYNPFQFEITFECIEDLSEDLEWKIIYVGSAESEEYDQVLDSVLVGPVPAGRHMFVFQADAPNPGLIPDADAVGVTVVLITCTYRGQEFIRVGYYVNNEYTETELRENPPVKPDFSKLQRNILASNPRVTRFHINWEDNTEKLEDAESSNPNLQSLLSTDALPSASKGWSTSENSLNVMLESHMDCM

pKd [1]: 6.55
Substance: H3.3/H4 heterodimer (from UniProt P84243 1-136; P62799 1-103) (complex; other documents disagree on this pair)

pKd [3]: 6.00
Substance: HIRA-WB/UBN1-NM/H3.3/H4 complex (from UniProt P54198 1-473; Q9NPG3 1-584; P84243 1-136; P62799 1-103) (complex; other documents disagree on this pair)

pKd [6]: 5.22
stoichiometry N [6]: 2
Substance: HIRA-WB/UBN1-NM/H3.3/H4 complex (from UniProt P54198 1-473; Q9NPG3 1-584; P84243 1-136; P62799 1-103)

Second part, the substance before the results:

Substance: UBN1 (from UniProt Q9NPG3)
pKd (H3.3/H4 (Homo sapiens)): 5.15

Substance: ASF1a (from UniProt Q9Y294)
pKd (H3/H4 (Homo sapiens)): 8.60

Substance: 60 bp dsDNA competitor
pKi [2]: 6.55

Substance: H3.3/H4 heterodimer (from UniProt P84243 1-136; P62799 1-103) (complex)
stoichiometry N [4]: 1
pKd [5]: 5.22
stoichiometry N [5]: 2
